Four molecules from patent publication US20220213213A1 (published 2022) can be followed below.

Assay [1] deals with T1, human/mouse 5T4 chimera aa173-420 (human/mouse chimera, UniProt Q13641 32-420).
T1 chain: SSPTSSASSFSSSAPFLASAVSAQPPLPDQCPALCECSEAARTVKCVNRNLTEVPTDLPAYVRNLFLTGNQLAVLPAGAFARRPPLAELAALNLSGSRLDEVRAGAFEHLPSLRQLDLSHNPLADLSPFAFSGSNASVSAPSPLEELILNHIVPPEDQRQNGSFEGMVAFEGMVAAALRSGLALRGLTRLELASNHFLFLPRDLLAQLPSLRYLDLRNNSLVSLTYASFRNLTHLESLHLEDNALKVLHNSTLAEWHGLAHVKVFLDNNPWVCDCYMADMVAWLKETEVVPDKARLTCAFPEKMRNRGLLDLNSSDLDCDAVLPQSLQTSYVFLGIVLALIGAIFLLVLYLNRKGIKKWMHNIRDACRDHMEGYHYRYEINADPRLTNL
The assay is described as follows: flow cytometry, chimera-transfected cells. A general note: In flow cytometry, cells or beads pass a laser one at a time.

Assay [2] addresses T2, 5T4 on the SPR chip (amine-coupled on Biacore; biotinylated on MASS-1) (UniProt Q13641 32-355, limits assumed, biotinylated in the MASS-1 assays).
T2 construct: also called biotinylated 5T4
T2 sequence (looked up): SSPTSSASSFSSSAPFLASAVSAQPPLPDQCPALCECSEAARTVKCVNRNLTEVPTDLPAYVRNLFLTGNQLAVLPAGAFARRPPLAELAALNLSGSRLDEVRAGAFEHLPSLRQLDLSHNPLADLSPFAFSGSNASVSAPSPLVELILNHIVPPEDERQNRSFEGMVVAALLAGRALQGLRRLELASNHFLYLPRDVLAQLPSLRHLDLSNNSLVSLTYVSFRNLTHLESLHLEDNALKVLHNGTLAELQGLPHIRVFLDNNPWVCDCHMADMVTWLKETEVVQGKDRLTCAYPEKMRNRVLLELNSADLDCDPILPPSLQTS
The assay is described as follows: SPR Biacore, 5T4 amine-coupled, mAb injected. How it is done: Binding kinetics of the 5T4-specific mAbs have been studied using two different SPR-based platforms, the Biacore 3000 (GE Healthcare) and the MASS-1 platform (Sierra Sensors). Briefly, 5T4 was captured at the sensor chip surface either via direct amine coupling (Biacore platform) or using a streptavidin coated chip and biotinylated 5T4 (MASS-1 platform). The different 5T4-specific mAbs were then injected over the chip in increasing concentrations and the association and dissociation rates studied in real time. A 1:1 Langmuir model was used for curve fitting.
For orientation: Surface plasmon resonance follows binding to a sensor surface in real time, without labels.

Assay [3] deals with T3, 5T4-Fc (obtained from Peter L. Stern, University of Manchester) (human, UniProt Q13641 32-355).
T3 construct: also called h5T4-Fc; recombinant 5T4; not shown: Fc part not specified
T3 sequence (looked up): T2 sequence (looked up)
The assay is described as follows: dual ELISA: coated 5T4-Fc, detection with CD137-bio. How it is done: Plates (#655074, Greiner Bio-One GmbH, Germany) were pre-coated with 0.5 μg/ml 5T4-Fc (obtained from Professor Peter Stern, University of Manchester) overnight. CD137-5T4 bsAb were diluted from 8 to 2×10⁻³ μg/ml in 1:4 dilutions and added in duplicates of 50 μl to each well. CD137-bio (Ancell #502-030) was used as detection antibody at 0.5 μg/ml and the binding was detected with Streptavidin-HRP (Pierce #21126). The ELISA was developed with SuperSignal ELISA PICO Chemiluminescent substrate (Thermo Scientific Pierce, Rockford, Ill. USA) during 2-10 minutes and read in an automated microplate based multi-detection reader (FLUOstar OPTIMA, Netherlands).

B1: 1206/1207 (antibody, V domains shown)
VH: EVQLLESGGGLVQPGGSLRLSCAASGFTFSGSSMSWVRQAPGKGLEWVSSIYYSGSGTYYADSVKGRFTISRDNSKNTLYLQMNSLRAEDTAVYYCARYGRNVHPYNLDYWGQGTLVTVSS
VL: DIQMTQSPSSLSASVGDRVTITCRASQSISSYLNWYQQKPGKAPKLLIYAASSLQSGVPSRFSGSGSGTDFTLTISSLQPEDFATYYCQQGYYYLPTFGQGTKLEIK
As to B1, the “normalized % positive cells” value in assay [1] came to 0.3.

B2: 1212/1213 (antibody, V domains shown)
VH: EVQLLESGGGLVQPGGSLRLSCAASGFTFSSYAMSWVRQAPGKGLEWVSYISSYGGYTSYADSVKGRFTISRDNSKNTLYLQMNSLRAEDTAVYYCARYHSGVLDYWGQGTLVTVSS
VL: DIQMTQSPSSLSASVGDRVTITCRASQSISSYLNWYQQKPGKAPKLLIYAASSLQSGVPSRFSGSGSGTDFTLTISSLQPEDFATYYCQQYYYHYLLTFGQGTKLEIK
On to B2, for which, in assay [1], the “normalized % positive cells” value is -0.01. Moreover, in assay [2], binding was put at a Kd of 0.18 nM and the off-rate (koff) – broadly, the rate constant with which the complex falls apart – came out at 0.00081 s⁻¹.

B3: 1626-1208 (bispecific antibody)
chain 1: not shown
chain 2: DIQMTQSPSSLSASVGDRVTITCRASQSISSYLNWYQQKPGKAPKLLIYAASSLQSGVPSRFSGSGSGTDFTLTISSLQPEDFATYYCQQGTGYGPLTFGQGTKLEIKRTVAAPSVFIFPPSDEQLKSGTASVVCLLNNFYPREAKVQWKVDNALQSGNSQESVTEQDSKDSTYSLSSTLTLSKADYEKHKVYACEVTHQGLSSPVTKSFNRGEC
With B3, it took 1.91 nM to reach a half-maximal effect in assay [3] (EC50).

B4: 1626-1210 (bispecific antibody)
heavy: not shown
light: B3 chain 2
With B4, the half-maximal effective concentration (EC50) (as a rule, the concentration needed to bring the measured effect to its halfway point) in assay [3] worked out at 0.4 nM.
